Source: US8147844 (Genentech, dated 2012)
Several values for one entry are separate records, joined by “and”; a condition that tells them apart may be missing. Equal values may be shown once.

Experiments:
[1] = molecular target: T1, mpl-IgG (chimeric molecule comprising the entire extracellular domain of human mpl, amino acids 1-491, and … (human, UniProt P40238 26-491)); test: mpl receptor-based ELISA: mpl-IgG captured on an anti-human IgG (Fc) plate, bound TPO detected with biotinylated rabbit antibodies to TPO155
T1 construct: range 1-491; Expressed in 293 cells; no cleavage site is stated; Used immobilized on Ultralink or NHS-superose, captured on ELISA plates, or soluble; also called soluble mpl-IgG; soluble human mpl-IgG; not shown: Fc region of a human IgG1 molecule
T1 sequence (looked up): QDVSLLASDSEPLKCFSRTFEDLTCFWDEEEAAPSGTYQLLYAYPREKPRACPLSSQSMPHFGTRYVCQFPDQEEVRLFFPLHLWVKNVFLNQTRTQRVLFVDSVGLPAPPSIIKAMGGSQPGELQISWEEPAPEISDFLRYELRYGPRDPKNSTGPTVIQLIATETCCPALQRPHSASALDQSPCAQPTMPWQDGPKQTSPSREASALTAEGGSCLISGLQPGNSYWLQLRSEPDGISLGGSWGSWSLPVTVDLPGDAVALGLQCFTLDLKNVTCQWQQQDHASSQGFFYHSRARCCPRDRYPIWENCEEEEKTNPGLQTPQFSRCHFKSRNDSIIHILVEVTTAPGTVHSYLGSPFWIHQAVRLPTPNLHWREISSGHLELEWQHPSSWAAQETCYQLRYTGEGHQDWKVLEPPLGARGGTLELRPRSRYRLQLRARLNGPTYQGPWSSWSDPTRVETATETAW

[2] = molecular target: T1, mpl-IgG (chimeric molecule comprising …); test: mpl receptor based ELISA (captured mpl-IgG)

B1: TPO (Met^-1 1-153), refolded, produced in E. coli (ligand)
chain: MSPAPPACDLRVLSKLLRDSHVLHSRLSQCPEVHPLPTPVLLPAVDFSLGEWKTQMEETKAQDILGAVTLLLEGVMAARGQLGPTCLSSLLGQLSGQVRLLLGALQSLLGTQLPPQGRTTAHKDPNAIFLSFQHLLRGKVRFLMLVGGSTLCVR
modifications: non-glycosylated; disulfides between cysteines 1-4 and 2-3
notes: Encoded by plasmid pMP210-1
EC50 [1]: 0.0019 µg/mL and 0.12 nM

B2: TPO (1-155) with authentic N-terminus, generated by thrombin cleavage of T-H8MLF (ligand)
chain: SPAPPACDLRVLSKLLRDSHVLHSRLSQCPEVHPLPTPVLLPAVDFSLGEWKTQMEETKAQDILGAVTLLLEGVMAARGQLGPTCLSSLLGQLSGQVRLLLGALQSLLGTQLPPQGRTTAHKDPNAIFLSFQHLLRGKVRFLMLVGGSTLCVRRA
notes: Only very minor (<5%) internal cleavage occurred; also called cleaved variant (3)
EC50 [2]: 0.002 µg/mL to 0.004 µg/mL (2×) and 0.12 nM and 0.24 nM
